Earlier results, collected in paper PMC7616283.

Target: CCR8 (Homo sapiens) (UniProt P51685)
Sequence (P51685 whole entry): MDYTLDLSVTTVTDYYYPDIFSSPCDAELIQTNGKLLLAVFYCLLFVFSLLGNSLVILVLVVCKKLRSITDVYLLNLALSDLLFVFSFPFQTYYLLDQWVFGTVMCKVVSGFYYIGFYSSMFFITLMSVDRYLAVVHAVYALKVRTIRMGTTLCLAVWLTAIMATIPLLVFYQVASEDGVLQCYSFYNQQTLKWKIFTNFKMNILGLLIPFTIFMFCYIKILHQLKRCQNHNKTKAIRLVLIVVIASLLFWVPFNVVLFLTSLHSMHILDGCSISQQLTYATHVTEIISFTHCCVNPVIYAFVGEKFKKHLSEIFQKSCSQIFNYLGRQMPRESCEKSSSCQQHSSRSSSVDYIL

CCL18, sequence (P55774 24-89): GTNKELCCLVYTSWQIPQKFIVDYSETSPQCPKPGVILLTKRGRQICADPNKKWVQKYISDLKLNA

Kd: 1.9 nM
Substance: CCL18 (from UniProt P55774)
